Tests used:
[1] = target: T1, anti-CD28 scFv (VH-linker 1-VL) (biotinylated (site not stated)); assay: phage ELISA; scFv wells pre-incubated with soluble CD28 (competitor);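 further: crude clonal phage supernatants added to wells pretreated with soluble CD28 in blocking buffer, bound phage read via HRP-linked anti-M13 antibody, reference wells got blocking buffer only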
T1 construct: Captured as biotinylated scFv on neutravidin coated plates in the phage ELISA

[2] = target: T1, anti-CD28 scFv (VH-linker 1-VL); assay: phage ELISA; biotinylated scFv on neutravidin plate; anti-M13-HRP;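 further: crude clonal phage supernatant added to wells pre-incubated with soluble CD28 protein or only blocking buffer, then washed, bound phage read out with an HRP-linked anti-M13 antibody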
Method: (§1) Clonal phage were harvested as crude supernatants and screened via standard enzyme linked immunosorbent assays (ELISAs). […] Prior to the addition of clonal phage, wells were incubated with blocking buffer and CD28 soluble protein or blocking buffer alone. Without washing or aspirating, clonal phage supernatants were then added to the wells and incubated for a short time. Wells were then washed followed by detection of bound phage using a horse radish peroxidase conjugated anti-M13 antibody.

[3] = target: Anti-CD28 scFv (VH-linker 1-VL); assay: phage ELISA: biotinylated anti-CD28 scFv on neutravidin plate, clonal phage supernatant, anti-M13-HRP;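 further: before phage addition, wells were preincubated either with soluble CD28 protein in blocking buffer or with blocking buffer only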
Anti-CD28 scFv (VH-linker 1-VL), sequence (scFv, as listed by the source): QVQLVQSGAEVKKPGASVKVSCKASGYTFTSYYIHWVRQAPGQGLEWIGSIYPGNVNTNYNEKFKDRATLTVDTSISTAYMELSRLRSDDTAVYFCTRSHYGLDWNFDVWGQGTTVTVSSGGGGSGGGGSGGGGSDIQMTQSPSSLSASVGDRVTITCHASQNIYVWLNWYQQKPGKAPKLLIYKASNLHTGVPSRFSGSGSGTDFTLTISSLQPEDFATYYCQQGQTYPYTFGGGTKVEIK
Method: as §1

[4] = target: Anti-CD28 scFv (VH-linker 1-VL); assay: phage ELISA: biotinylated anti-CD28 scFv on neutravidin plate, clonal phage supernatant, anti-M13-HRP; wells pre-incubated with soluble CD28 (competitor);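 on Phage binding ELISA CD28 scFv signal in presence of CD28: wells pretreated with soluble CD28 protein in blocking buffer before phage addition, no wash in between, reference wells got blocking buffer only, bound phage detected after washing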
Method: as §1

T1 sequence (scFv, as listed by the source): as above

Row | Binder | CD28 scFv signal in presence of CD28 [1] | CD28 scFv signal [2] | Phage binding ELISA CD28 scFv signal [3] | Phage binding ELISA CD28 scFv signal in presence of CD28 [4]
1 | MDWCPKSLWAECFN (on phage (pIII fusion)) [Phage-308 clonal phage peptide] | 0.162 | 2.38 |  | 
2 | MDWCPRHMWHECFA (on phage (pIII fusion)) [Phage-263 clonal phage peptide] | 0.298 | 2.52 |  | 
3 | MVGCATSMWNRCLT (on phage (pIII fusion)) [Phage-253 clonal phage peptide] | 0.746 | 0.77 |  | 
4 | MVWCMSVGWAVCLN (on phage (pIII fusion)) [Phage-272 clonal phage peptide] | 0.284 | 0.271 |  | 
5 | MDWCPRDHWVDCYS (on phage (pIII fusion)) [Phage-275 clonal phage peptide] | 0.092 | 0.671 |  | 
6 | MDWCPTYLWNECFN (on phage (pIII fusion)) [Phage-320 clonal phage peptide] | 0.606 | 2.24 |  | 
7 | IDWCPKIHWDLCYF (on phage (pIII fusion)) [Phage-276 clonal phage peptide] | 0.082 | 0.295 |  | 
8 | MDWCPRNLWHACFN (on phage (pIII fusion)) [Phage-259 clonal phage peptide] | 0.112 | 1.57 |  | 
9 | MYWCATSMWNRCFV (on phage (pIII fusion)) [Phage-262 clonal phage peptide] | 0.415 | 0.398 |  | 
10 | MSWCPRDLWHLCFF (on phage (pIII fusion)) [Phage-319 clonal phage peptide] | 0.319 | 2.27 |  | 
11 | MFLCPSAMWNRCFY (Clonal phage from the Peptide-9 library) [Phage-426] |  |  | 0.094 | 0.114
12 | IHLCHWVPWIKCSH (Clonal phage from the Peptide-9 library) [Phage-430] |  |  |  | 2.51
13 | INLCPTPMWNRCWL (Clonal phage from the Peptide-9 library) [Phage-423] |  |  | 0.103 | 0.101
14 | MAWCPADQWHECFN (Clonal phage from the Peptide-9 library) [Phage-431] |  |  | 1.84 | 0.456
15 | MDWCPRALWDHCFF (on phage (pIII fusion)) [Phage-292 clonal phage peptide] | 0.394 | 2.49 |  | 
16 | MDWCPFDLWHVCYN (on phage (pIII fusion)) [Phage-256 clonal phage peptide] | 0.651 | 2.6 |  | 
17 | MDWCPRYLWAECFN (on phage (pIII fusion)) [Phage-279 clonal phage peptide] | 1.14 | 2.74 |  | 
18 | MDWCPIYLWAECFN (on phage (pIII fusion)) [Phage-299 clonal phage peptide] | 0.307 | 2.45 |  | 
19 | MDWCPRHMWINCFA (on phage (pIII fusion)) [Phage-252 clonal phage peptide] | 0.165 | 0.92 |  | 
20 | MDWCPRDLWAMCFA (on phage (pIII fusion)) [Phage-285 clonal phage peptide] | 0.889 | 2.63 |  | 
21 | MDWCPRDFWAFCFF (on phage (pIII fusion)) [Phage-270 clonal phage peptide] | 0.655 | 2.37 |  | 
22 | MNWCPSTMWNRCLT (Clonal phage from the Peptide-9 library) [Phage-428] |  |  | 0.065 | 0.07
23 | DSFCTWSAWQECGR (on phage (pIII fusion)) [Phage-269 clonal phage peptide] | 0.101 | 0.13 |  | 
24 | MDWCPMFLWHECFN (on phage (pIII fusion)) [Phage-309 clonal phage peptide] | 0.591 | 2.38 |  | 
25 | MDWCPMFLWDECFN (on phage (pIII fusion)) [Phage-318 clonal phage peptide] | 0.203 | 2.29 |  | 
26 | MDWCPRFLWHECFN (on phage (pIII fusion)) [Phage-257 clonal phage peptide] | 0.351 | 2.59 |  | 
27 | MDWCPMFMWHECFN (on phage (pIII fusion)) [Phage-261 clonal phage peptide] | 1.04 | 2.23 |  | 

Row | Binder | CD28 scFv signal in presence of CD28 [1] | CD28 scFv signal [2] | Phage binding ELISA CD28 scFv signal [3] | Phage binding ELISA CD28 scFv signal in presence of CD28 [4]
28 | MTLCLSVDLVHCWY (on phage (pIII fusion)) [Phage-267 clonal phage peptide] | 0.093 | 0.632 |  | 
29 | MDWCPRDLWFACFA (on phage (pIII fusion)) [Phage-282 clonal phage peptide] | 0.794 | 2.66 |  | 
30 | MDWCPTSFWNRCFH (on phage (pIII fusion)) [Phage-271 clonal phage peptide] | 0.092 | 0.087 |  | 
31 | MDLCPTAMWNRCFY (Clonal phage from the Peptide-9 library) [Phage-425] |  |  | 0.097 | 0.084
32 | MDWCPRSLWFLCFN (on phage (pIII fusion)) [Phage-281 clonal phage peptide] | 1.77 | 2.71 |  | 
33 | MDWCPRDLWDECFN (on phage (pIII fusion)) [Phage-310 clonal phage peptide] | 0.248 | 2.37 |  | 
34 | MDWCPRHLWHECFT (on phage (pIII fusion)) [Phage-317 clonal phage peptide] | 0.32 | 2.3 |  | 
35 | MDWCPVFMWNECFN (on phage (pIII fusion)) [Phage-260 clonal phage peptide] | 0.356 | 2.66 |  | 
36 | ITQCPSTMWNRCSV (Clonal phage from the Peptide-9 library) [Phage-424] |  |  | 0.098 | 0.108
37 | VILCPTTMWNRCFH (Clonal phage from the Peptide-9 library) [Phage-427] |  |  | 0.072 | 0.084
38 | MDWCPRDLWYVCFA (on phage (pIII fusion)) [Phage-321 clonal phage peptide] | 0.138 | 2.22 |  | 
39 | MDWCPRSLWDYCFA (on phage (pIII fusion)) [Phage-294 clonal phage peptide] | 0.235 | 2.49 |  | 
40 | MDWCPRYLWDYCFA (on phage (pIII fusion)) [Phage-280 clonal phage peptide] | 0.382 | 2.71 |  | 
41 | MDWCPRSLWNYCFA (on phage (pIII fusion)) [Phage-316 clonal phage peptide] | 0.198 | 2.32 |  | 
42 | MDWCPRSLWNYCFN (on phage (pIII fusion)) [Phage-313 clonal phage peptide] | 0.209 | 2.35 |  | 
43 | MDWCPRDLWYQCFN (on phage (pIII fusion)) [Phage-311 clonal phage peptide] | 0.609 | 2.35 |  | 
44 | MDWCPRDLWSVCFS (on phage (pIII fusion)) [Phage-290 clonal phage peptide] | 0.116 | 2.5 |  | 
45 | MDWCPRFMWSECFS (on phage (pIII fusion)) [Phage-251 clonal phage peptide] | 0.137 | 1.01 |  | 
46 | MDWCPTYLWHVCFS (on phage (pIII fusion)) [Phage-315 clonal phage peptide] | 0.16 | 2.32 |  | 
47 | MDWCPRSHWSECFS (on phage (pIII fusion)) [Phage-277 clonal phage peptide] | 0.087 | 0.253 |  | 
48 | VTSCPTTMWNRCFS (on phage (pIII fusion)) [Phage-266 clonal phage peptide] | 0.546 | 1.22 |  | 
49 | MERCPRYLWHMCYS (on phage (pIII fusion)) [Phage-286 clonal phage peptide] | 0.84 | 2.59 |  | 
50 | MDWCPIALWDFCFA (on phage (pIII fusion)) [Phage-288 clonal phage peptide] | 0.492 | 2.52 |  | 
51 | MDWCPKFLWDECFA (on phage (pIII fusion)) [Phage-304 clonal phage peptide] | 0.376 | 2.41 |  | 
52 | MDWCPKVMWHYCFA (on phage (pIII fusion)) [Phage-250 clonal phage peptide] | 0.252 | 1.14 |  | 
53 | WVSCLRHHWLECFH (on phage (pIII fusion)) [Phage-274 clonal phage peptide] | 0.858 | 0.723 |  | 
54 | MDWCPRYLWPVCFH (on phage (pIII fusion)) [Phage-307 clonal phage peptide] | 0.602 | 2.39 |  | 

From US20230357447A1 (JANUX THERAPEUTICS, published 2023)
